Results on five molecules are retold here after article PMC7378079 (Scientific Reports, 2020).

In series [1] the target is T1, TNKS2 (tankyrase 2) ARC4 (Homo sapiens, UniProt Q9H2K2).
T1 construct: ARC4 domain (ankyrin repeat cluster 4); CFP-ARC4 fusion in FRET, unlabelled ARC4 in DSF
T1 sequence (Q9H2K2 484-649 limits assumed): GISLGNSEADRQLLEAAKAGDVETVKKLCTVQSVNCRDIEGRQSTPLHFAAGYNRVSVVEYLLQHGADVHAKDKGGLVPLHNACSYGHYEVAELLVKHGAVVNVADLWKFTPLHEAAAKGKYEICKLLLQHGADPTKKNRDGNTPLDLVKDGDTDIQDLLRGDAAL
The experiment in a line: FRET competition with YFP-TBM peptide (Ki calculated from IC50); DSF Tm shift […] °C at […]. Type of series: binding.

In series [2] the target is T1, TNKS2 (tankyrase 2) ARC4. Described as above. The series is classed as binding. The source holds these as a separate data set.
A further series addresses T2, unlabelled TNKS2 ARC4 (human, His6-MBP removed by TEV; the residual N-terminal SM is omitted; limits from the TNKS2 ARC4 crystal construct convention).
T2 chain: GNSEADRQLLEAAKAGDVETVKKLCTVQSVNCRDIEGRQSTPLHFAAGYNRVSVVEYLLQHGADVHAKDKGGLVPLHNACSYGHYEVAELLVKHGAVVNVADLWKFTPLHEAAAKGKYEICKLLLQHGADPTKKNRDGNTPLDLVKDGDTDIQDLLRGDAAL
Kind of series: differential scanning fluorimetry; 5 µM unlabelled TNKS2 ARC4, 5x SYPRO Orange, 100 µM TBM peptide; assay buffer pH 7.0, 1% DMSO; 20-95 °C at 1 °C/min; 4 replicates. The settings on record: both partners purified. For orientation: DSF heats the sample and reads unfolding from a dye or from intrinsic fluorescence.

The next series concerns the target T3, TNKS1 SAM(E1050K)-CFP (human, UniProt O95271 1030-1089, E1050K).
T3 construct: human tankyrase 1 (TNKS1), sterile alpha-motif (SAM) domain; also called ML surface mutant of the TNKS1 SAM domain; source: E. coli BL21(DE3), purified (IMAC); not shown: mCerulean (CFP), C-terminal, kept
T3 sequence (looked up): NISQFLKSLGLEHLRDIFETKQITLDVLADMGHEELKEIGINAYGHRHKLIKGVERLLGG
Kind of series: FRET or BRET; titration for Kd after Song et al.: CFP-fusion kept constant (50 nM to 1.1 µM), YFP-fusion 0-4,000 nM; FRET emission on excitation at 430 nm; assay buffer 10 mM Bis-Tris-Propane pH 7.0, 3% PEG20,000, 0.01% Triton-X100, 0.5 mM TCEP; 384-well plates, 4 replicates; the paper calls the constants an estimation. The note with it: both partners purified.

The target in series [3] is T4, CFP-ARC2-3 (TNKS1) (human, mCerulean fusion omitted; conventional ARC limits).
T4 chain: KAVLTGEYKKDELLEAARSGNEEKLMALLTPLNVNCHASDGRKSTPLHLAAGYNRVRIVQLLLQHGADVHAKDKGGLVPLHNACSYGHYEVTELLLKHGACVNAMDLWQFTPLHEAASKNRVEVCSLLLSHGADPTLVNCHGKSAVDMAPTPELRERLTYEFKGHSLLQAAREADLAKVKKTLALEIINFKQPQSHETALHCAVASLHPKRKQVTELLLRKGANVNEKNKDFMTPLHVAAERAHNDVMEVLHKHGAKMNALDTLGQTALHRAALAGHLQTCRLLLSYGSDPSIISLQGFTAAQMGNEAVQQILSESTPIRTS
The series is described as above. The settings on record: both partners purified.

The target of another series is T5, CFP-ARC5 (TNKS1) (human, N-terminal mCerulean fusion omitted; conventional ARC limits).
T5 chain: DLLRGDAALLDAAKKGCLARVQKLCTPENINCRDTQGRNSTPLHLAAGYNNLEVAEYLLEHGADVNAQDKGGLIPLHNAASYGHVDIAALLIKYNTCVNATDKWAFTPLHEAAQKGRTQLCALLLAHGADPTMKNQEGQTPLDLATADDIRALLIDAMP
Described as above. The note with it: both partners purified.

The target in another series is T6, CFP-ARC4 (TNKS1) (human, N-terminal mCerulean fusion omitted; limits by homology to TNKS2 ARC4 488-649).
T6 chain: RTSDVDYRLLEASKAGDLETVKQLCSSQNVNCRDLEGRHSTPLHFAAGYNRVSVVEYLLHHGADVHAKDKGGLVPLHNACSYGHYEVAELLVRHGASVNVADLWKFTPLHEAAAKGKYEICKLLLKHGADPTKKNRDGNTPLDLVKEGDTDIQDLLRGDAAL
The description is as above. The note with it: both partners purified.

For a further series, the target named is T7, CFP-ARC5 (TNKS2) (human, N-terminal mCerulean fusion omitted; conventional ARC limits).
T7 chain: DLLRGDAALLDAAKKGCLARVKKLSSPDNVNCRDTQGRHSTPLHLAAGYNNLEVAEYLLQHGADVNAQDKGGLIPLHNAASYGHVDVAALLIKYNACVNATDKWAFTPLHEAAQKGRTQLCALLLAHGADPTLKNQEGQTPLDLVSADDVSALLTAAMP
The description is as above. The note with it: both partners purified.

The next series has as its target T8, CFP-ARC1 (TNKS2) (human, N-terminal mCerulean fusion omitted; conventional ARC limits).
T8 chain: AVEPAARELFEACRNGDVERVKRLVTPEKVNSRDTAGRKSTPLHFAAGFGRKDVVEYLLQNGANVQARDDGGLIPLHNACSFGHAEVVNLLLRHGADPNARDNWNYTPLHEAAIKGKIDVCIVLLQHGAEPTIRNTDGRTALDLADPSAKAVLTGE
The description is as above. The settings on record: both partners purified.

Another series deals with T9, CFP-ARC4 (TNKS2) (human, N-terminal mCerulean fusion omitted; limits from the TNKS2 ARC4 crystal construct convention (e.g. 3TWR), as Table S1 is not shown).
T9 chain: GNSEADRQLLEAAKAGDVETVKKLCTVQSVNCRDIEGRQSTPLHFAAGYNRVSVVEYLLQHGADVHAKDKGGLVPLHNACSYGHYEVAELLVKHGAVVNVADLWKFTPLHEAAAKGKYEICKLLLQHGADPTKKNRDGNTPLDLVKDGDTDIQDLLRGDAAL
Described as above. The note with it: both partners purified.

Series [4] deals with T4, CFP-ARC2-3 (TNKS1). The series is described as above. The note with it: both partners purified.
For another series, the target named is T10, CFP-ARC1 (TNKS1) (human, N-terminal mCerulean fusion omitted; conventional ARC limits).
T10 chain: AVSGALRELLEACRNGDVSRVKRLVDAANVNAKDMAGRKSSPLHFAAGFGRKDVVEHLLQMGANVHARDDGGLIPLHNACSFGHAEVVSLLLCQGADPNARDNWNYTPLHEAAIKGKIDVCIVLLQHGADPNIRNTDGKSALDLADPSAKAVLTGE
Described as above. The settings on record: both partners purified.

The next series addresses T11, CFP-ARC2 (TNKS1) (human, N-terminal mCerulean fusion omitted; conventional ARC limits).
T11 chain: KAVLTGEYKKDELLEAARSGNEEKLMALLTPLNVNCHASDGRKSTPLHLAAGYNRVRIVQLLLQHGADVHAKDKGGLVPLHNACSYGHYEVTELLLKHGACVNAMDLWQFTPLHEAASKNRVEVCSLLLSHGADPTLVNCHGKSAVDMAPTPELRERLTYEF
Described as above. The note with it: both partners purified.

Where two headings read alike, the source gives them in different places.

The term Ki denotes a measure of affinity in units of concentration, obtained from inhibition or displacement. One may read the Kd as the free concentration of one partner at which half of the binding sites on the other are occupied at equilibrium, for simple one-to-one binding.

Regarding `O=C(O)c1cc(O)c2c(Cl)cc(Cl)cc2n1` [DCKA, 5,7-dichlorokynurenic acid], the Ki on TNKS2 (tankyrase 2) ARC4 [1] was 62 µM.
For the molecule `O=c1[nH]c2cc(C(F)(F)F)c(N3CCOCC3)cc2n(CP(=O)(O)O)c1=O` [Fanapanel], at TNKS2 (tankyrase 2) ARC4 [2], the Ki was 20 µM.

B1: TBM-peptide (REAGDGEE) (peptide)
peptide: REAGDGEE
notes: also called 8-mer TBM peptide; source: synthetic peptide, bought: JPT Peptide Technologies
For B1, the “Tm shift at 100 µM” value with unlabelled TNKS2 ARC4 was 2.94 ± 0.16 °C.

B2: TNKS1 SAM(Y1073A)-YFP (domain or fragment, human, UniProt O95271 1030-1089, looked up)
chain: NISQFLKSLGLEHLRDIFETEQITLDVLADMGHEELKEIGINAAGHRHKLIKGVERLLGG
notes: human tankyrase 1 (TNKS1), sterile alpha-motif (SAM) domain; also called EH surface mutant of the TNKS1 SAM domain; source: E. coli BL21(DE3), purified (IMAC); not shown: mCitrine (YFP), C-terminal, kept
For B2, in the series with TNKS1 SAM(E1050K)-CFP, the Kd was 0.56 µM.

B3: YFP-TBM (peptide)
chain: REAGDGEE
notes: also called TBM (REAGDGEE); YFP-fused TBM; source: E. coli BL21(DE3), purified (IMAC); not shown: mCitrine (YFP), N-terminal, kept
For the molecule B3, the Kd is 0.013 µM in the series with CFP-ARC2-3 (TNKS1) [3]; 0.027 µM with CFP-ARC5 (TNKS1); 0.045 µM in the series with CFP-ARC4 (TNKS1); 0.033 µM with CFP-ARC5 (TNKS2); 0.97 µM with CFP-ARC1 (TNKS2); 0.035 µM with CFP-ARC4 (TNKS2). The Kd with CFP-ARC2-3 (TNKS1) [4] was 0.012 µM; with CFP-ARC1 (TNKS1) it was 2.6 µM; with CFP-ARC2 (TNKS1) it was 0.0082 µM.
